In the nanobody polyreactivity screen of Harvey et al. (2022):

Assay: yeast display, Sf9 membrane polyspecificity reagent, FACS + sequencing; frameworks hold sequencing errors
Outline: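 Galactose induction of a Saccharomyces cerevisiae BJ5465 synthetic nanobody display library ran 36–48 hours. The cells were then stained for 1 hour at 4 °C with 10% biotinylated, detergent-solubilized Sf9 membrane reagent, pulled down on streptavidin microbeads and FACS-sorted into low and high (top ~1%) gates on expression and reagent-binding fluorescence. Labels for polyreactivity follow the gate of origin.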

In the case of “QVQLVESGRGLVQAGGSLPLRCAASGPTFPFNAMGRYRQAPGKERELVAAISWRDGRTYYADSVKGRFTISRDNAKNTVYLHMNSLKPEDTAVYYCNVVKRRSDWGMDYWGQGTQVSVSS”, the “polyreactivity (PSR sort gate)” value was “high polyreactivity”.

In the case of “QVQLVESGRGLVQAGGSLPLSCAASGRTFPSNTMGWYRPAPGKERELVAAINRSGGTTYYADSVKGRCTISRDKAKNTVYLQINSLKPEDTAVYYCAVLSRYKACRKYDYWGQCTQVTVSS”, the “polyreactivity (PSR sort gate)” value was “high polyreactivity”.

For “QVQLVESGRGLVQAGGSLPLSCSASGSIFAYYTMGWYRQAPGKERDLVAAISETGGSTYYADSVKGRFTISRDIAKNTVYLQMNSLKPEDTAVYYCNADKYYYYTGQEYYPQYGYWGQGTQVSVSS”, the “polyreactivity (PSR sort gate)” value was “low polyreactivity”.

For “QVQLVESGRGLVQAGGSLRISCAASGFTFVRYVMGWYRQAPGTESELVAAISRSGGSTHYADSVKGRFTISRDNAKNTVYFQMTSLKPEDTAVYYCAAACPRWPGQGDYWGQGTQVTVSS”, the “polyreactivity (PSR sort gate)” value was “high polyreactivity”.

In the case of “QVQLVESGRGLVQAGGSLRISCAASGRTFRHNVMGWYRQAAGQERELVAAITWGDASTYYADSVKGRFTISRDNAKNTVYLQMNSLKPEDTAVYYCAASDYRRSYDYWGQGTQVTVSW”, the “polyreactivity (PSR sort gate)” value was “low polyreactivity”.

In the case of “QVQLVESGRGLVQAGGSLRISCAASGRTFYSYAMGWYRQAPGKERELVAAITSSGGRTYYADSVKGRFTISRDNAKNTVYLQMNSLKPEDTAVYYCNKLRRSPNSQYYYWGQGTQVTVSS”, the “polyreactivity (PSR sort gate)” value was “high polyreactivity”.

With “QVQLVESGRGLVQAGGSLRISCAASGSTFIFNTMGWYRQAPGKEMELVATITGDGRTNYADSVKGRFTISRDNAKNTVYLQMNSLKPEDTAVYYCDADGYDQYPLWSPPGDYWGQGTQVTVSS” the “polyreactivity (PSR sort gate)” value was “low polyreactivity”.

With “QVQLVESGRGLVQAGGSLRLRCAASGSIFKSNVMGWYRPAPGKERELVAVITRSGGSTYYADSEKGRFTISRDNAKNTVYLQMNSLKPEDTAVYYCNRAAGYWAGYYHWGQGTQVTVSS” the “polyreactivity (PSR sort gate)” value was “high polyreactivity”.

For “QVQLVESGRGLVQAGGSLRLRCAASGSTFNENVMGWYRQAPGKERELVAAIRTGSGSTYYADSVKGRFTISRDNAKNTVYLQMNSLKPEDTAVYYCYKDRGYSSLFSLFPGDYWGQGTQVTVSS”, the “polyreactivity (PSR sort gate)” value was “low polyreactivity”.

With “QVQLVESGRGLVQAGGSLRLSCAASGFTFAFYAMGWYRQAPGKERELVAAISRRGGSTTYADSVKGRFTISRDNAKNTVYLQMNSLIPEDSAVYYCNAVSTRNPGPDYYYWGQGTQVTVSS” the “polyreactivity (PSR sort gate)” value was “high polyreactivity”.

With “QVQLVESGRGLVQAGGSLRLSCAASGFTFGVNAMGWYRQAPGKERELVAAITRSGGTTYYADSVKGRFTISRDNAKNTVYLQMNSLKPEDTAVYYCNRRARSYADDYWGQGTQVTVSS” the “polyreactivity (PSR sort gate)” value was “high polyreactivity”.

In the case of “QVQLVESGRGLVQAGGSLRLSCAASGFTFPDNTMGRYRQAPGKERVLVAGIRRRGGSTYYADSVKGRFTISRDHAKKTVSLQMNSLKPEDTAVYYCAASRAVTQYSGGGYWGQGTQVTVSS”, the “polyreactivity (PSR sort gate)” value was “high polyreactivity”.

In the case of “QVQLVESGRGLVQAGGSLRLSCAASGFTFSYYAKGWYRQAPGKEREFVAAISWSGGSTYYADSVKGRFTLSRDNAKNTVYLQMNSLKPEDTAVYNSAARSTGGSPGRRFTRGYDYWGQGTQVTVSS”, the “polyreactivity (PSR sort gate)” value was “high polyreactivity”.

With “QVQLVESGRGLVQAGGSLRLSCAASGFTFYYYAMGRYRQAPGKERELVAAISTRDGNTYYADSVKARFTISRDNAKNTVYLQMKSLKTEVTAVYYCAAAYFRYYPYDYWGQGTLVTVSS” the “polyreactivity (PSR sort gate)” value was “low polyreactivity”.

In the case of “QVQLVESGRGLVQAGGSLRLSCAASGGIFTDYTMGWYRQAPGKERELVAAITWTGGSTYYADSVKGRFTISRDNAKNTFYLQMNSLKPEDSAVYYCAADDYWVNLVYWGQGTQVTVSS”, the “polyreactivity (PSR sort gate)” value was “low polyreactivity”.

For “QVQLVESGRGLVQAGGSLRLSCAASGGTFGWYAMGWYRQAPGKERELVAAISQGGGSTYYADSVKGRFTISRDNAKNTVYLQMNSLKPEDTAVYYCAAYLGRAKGYEYWGQGTQVTVSS”, the “polyreactivity (PSR sort gate)” value was “high polyreactivity”.

With “QVQLVESGRGLVQAGGSLRLSCAASGIIFELYAMGWYRQAPGKEREFVAAINFSDGSTDYADSVKGRFTISRDNAKKTVYLKMNSLKPEDTAVYYCNADSIAYGSIIHGYWGQGTQVTVSS” the “polyreactivity (PSR sort gate)” value was “low polyreactivity”.

With “QVQLVESGRGLVQAGGSLRLSCAASGIIFKRYAMGWYRQAPGKERELVATINRDGRTSYADSVKGRFTSSRDNAKNTVYLQMHSLKPEDTAVYYCAATYLLERPTSKHPRYDYWGQGTQVTLSS” the “polyreactivity (PSR sort gate)” value was “low polyreactivity”.

With “QVQLVESGRGLVQAGGSLRLSCAASGITFGDNVMGWYRQAPGKERELVAAISRIGDDTYYADSVKGRFTISRDNAKNTVYLQMNSLKPEDTAVYYCATDYTQRDYYNYGYWGQGTQVTVSS” the “polyreactivity (PSR sort gate)” value was “low polyreactivity”.

In the case of “QVQLVESGRGLVQAGGSLRLSCAASGITFGYYAMGWSRQEPGKQSELVAAISFNGASTYYADSVKGRFTISRDNAKNTVYLQMNSMKPVDNAVYYCNRSTSYAQYFDVMDYWGQGTQVTVSS”, the “polyreactivity (PSR sort gate)” value was “low polyreactivity”.

For “QVQLVESGRGLVQAGGSLRLSCAASGNTLLKNAMGWYRQAPGKERELVAAISSSGGRTYYADSVKGRFTISRDNAKNTVYLQMNSLKQEDTAVYYCAARYPSGYYYWGQGTQVTVSS”, the “polyreactivity (PSR sort gate)” value was “high polyreactivity”.

With “QVQLVESGRGLVQAGGSLRLSCAASGRIFSSNAMVWYRQAPGKERELVAAISQGGGSTYYADSVKGRFTISRDNAKITVYLQMNSLIPEDTAVYYCAAETGYSGYDDSAYEYWGQGTQVTVSS” the “polyreactivity (PSR sort gate)” value was “low polyreactivity”.

For “QVQLVESGRGLVQAGGSLRLSCAASGRILDSNAMGWDRQAPGKESELVAAITWRGGSTYYADSVKGRFTISRDNAKNTVYLQMNSLKPEDTAVYYCNARWSKTAHTRFGYWGQGTQVTVSS”, the “polyreactivity (PSR sort gate)” value was “low polyreactivity”.

In the case of “QVQLVESGRGLVQAGGSLRLSCAASGSIFGFYAMGWYREAPGKESELVAAINSGSTNYADSLKGRFTISRDNAKNTVYLQMNSLKPEDTAVYYCNKDKGVQSYVSSDARYNYWGQGTQVTVSS”, the “polyreactivity (PSR sort gate)” value was “low polyreactivity”.

With “QVQLVESGRGLVQAGGSLRLSCAASGSIFGTNTMGWYRQAPGKERELVAAISWSGGSTYYADSVKGRFTISRDNAKNSVYLHMNSLKPEDTAVYYCNAVYPSVYPVSTRYYWGQGTQVTVSS” the “polyreactivity (PSR sort gate)” value was “high polyreactivity”.

With “QVQLVESGRGLVQAGGSLRLSCAASGSIFNAYAMGWYRQAPGKERELVADISKRTSYADSVKGRFTISRDNAKNTVYLQMNSLKPEDTADYYCAKEVDEPDGYEYDYWGQGTQVTVSS” the “polyreactivity (PSR sort gate)” value was “low polyreactivity”.

In the case of “QVQLVESGRGLVQAGGSLRLSCAASGSIFYNNAMGWYRQAPGKERELVAAIRSTGTRTYYADSVKGRFTISRDNAKNTVYLQMNSLKPEDTAVYYCAVGDYGLWSYDCWGQGTQVTVSS”, the “polyreactivity (PSR sort gate)” value was “low polyreactivity”.

For “QVQLVESGRGLVQAGGSLRLSCAASGSILSINGMGWYRQAPGKERELVATIDGSDGSTFYADSVKGRFTISRDNAKNSVYLQMNSQKPEDTAVYYCAAENFWQTKEYDYWGQGTQVTVRS”, the “polyreactivity (PSR sort gate)” value was “low polyreactivity”.

With “QVQLVESGRGLVQAGGSLRLSCAASGSISGGNAMGWYRQAPRKARELVAANDYTDDSTYYADSVKGRFTISRDNAKNTVYLQMNSQKPEDTAVYYCAADAYRAQGDYWGQGTQVTVSS” the “polyreactivity (PSR sort gate)” value was “low polyreactivity”.

With “QVQLVESGRGLVQAGGSLRLSCAASGSTFNSYAMGWYRQAPGKERELVAAIRWSGSSTYYADSVKGRFTISRDNAKNTVYLQMNSLKAEDTAVYYCSKGYSYGRPWDIYYYWGQGTQVTVSS” the “polyreactivity (PSR sort gate)” value was “low polyreactivity”.

In the case of “QVQLVESGRGLVQAGGSLRLSCAASGSTFYIYAMGWYRQAPGKERELVAAISTTDGTTYYADSVKGRFTISRDNAKNTVYLQMNSLKPEDTAVYYCAAEWFGSVQPAYDYWGQGTQVTVSS”, the “polyreactivity (PSR sort gate)” value was “high polyreactivity”.

For “QVQLVESGRGLVQAGGSLRLSCAASGYTFGYNAMGWYRQAPGKERELVATNSSGRTTTYADSVKGRFTISRDNAKNNVYLQMNSLKPEDNAGYYCATPVYRSSYEYDYWGQGTQVTVSS”, the “polyreactivity (PSR sort gate)” value was “low polyreactivity”.

For “QVQLVESGRGLVQAGGSLRLSCAPSGRIFKYYAKGWYRQAPGKERELVATITSGANTNYADSVKGRFTISRDNAKNTVYLQMNSLKPEDTAVYYCNADLDPRDYGFDYWGQGTQVTVSS”, the “polyreactivity (PSR sort gate)” value was “high polyreactivity”.

With “QVQLVESGRGLVQAGGSLRLSCAPSGSTFGKYAMGWFRQAPGKERELVAASSSGTSTNYADSVKGRFTISRDNAKNTVYLQMNSRKAEDTSVYYCAADSLKRYDDWGQGTQVTVSS” the “polyreactivity (PSR sort gate)” value was “low polyreactivity”.

With “QVQLVESGRGLVQAGGSLRLSCAPSGYIFAANAMGWYRQAPGKERELVAAISASGGSTYYADSVKGRFTISRDNAKNTVYLQMNSLKPEDTAVYYCYVVSDSRLYYRYAYDYWGQGTQVTVSS” the “polyreactivity (PSR sort gate)” value was “high polyreactivity”.

For “QVQLVESGRGLVQAGGSLRLSCDASGSILRENAMGWSRQAPGKERELVAVITRGGNTYYADSVKGRFTISRDNAKYTFYLQMNSMKREDTAVYYCAAKRRERYGQTYGYWGQGTQVTVSS”, the “polyreactivity (PSR sort gate)” value was “high polyreactivity”.

In the case of “QVQLVESGRGLVQAGGSLRLSSAASGSTFHQYTMGWYRQAPGKERELVAGITYRGGSTYADSVKGLFTISRDNAKNTVYLQMNSLKPDDTAVYYCNATPDSVRWDYALSVVRYDYWGQGTQVTVSS”, the “polyreactivity (PSR sort gate)” value was “low polyreactivity”.

In the case of “QVQLVESGRGLVQAGGSLRVSCAASGSILSINGMGWYRQAPGKERELVATIDGSDGSTFYADSVKGRFTISRDNAKNTVYLQMNSLKPEDTAVYYCAAENFWQTKEYDYWGQGTQVTVSS”, the “polyreactivity (PSR sort gate)” value was “low polyreactivity”.

In the case of “QVQLVESGRGLVQAGGTLRLSCAPYGRTFYPIAMAWYRQAPGKDRELVAAISYSGGSTYYADSVKGRFTISRDNAKNTVYLQMNRLKPEDTAVYDCAAAFSRDSRDLWGQGTQVTVSS”, the “polyreactivity (PSR sort gate)” value was “low polyreactivity”.

For “QVQLVESGRGLVQAGVSLRLSCAASGSTFGYYAMGWYRQAPGKERELVAAISYSGGSTYYADSVKGRFTISRDNAKNTVYLQMNSLKQEDTAVYYCAARFTRQMYYWGQGTQVNVSS”, the “polyreactivity (PSR sort gate)” value was “high polyreactivity”.

In the case of “QVQLVESGRRLVQAGGSLRLSCAASGRTFGFYAMGWYRQAPGKERELVAGITWSGGSTYYADSVKGRFTISRDNAKNTVYLQMNSLKPEDTAVYYCAADVWWYHYLLFDSWGQGTQVTVSS”, the “polyreactivity (PSR sort gate)” value was “low polyreactivity”.

In the case of “QVQLVESGSGLVQAGGILRLSCAASGFIFDAYAMGWYRQAPGKERELVAGISIGGRTNYADSVTGRFTISRDNALNTVYLQMTSLKPEDTAVYYCAARNYRYYYGSYYRGPITNYEYWGQGNQVTVSS”, the “polyreactivity (PSR sort gate)” value was “low polyreactivity”.

For “QVQLVESGVCIVEAGGSLRLSCAASGRSLKVYAMGWYRQAPGKERELVAAISQRGGSTYYADSVKGRFTISRDNAKNSVYLQMNSRKPEDTAVYYCAARYPYQSYLYRFDYWGQGTQVTVSS”, the “polyreactivity (PSR sort gate)” value was “high polyreactivity”.
